These results are taken from patent publication US20030028904A1 (published 2003).

For this experiment, the target named is T1, His-tagged Dock180 (UniProt Q14185 1-1865).
T1 construct: also called His-Dock180; CED-5/Dock180; not shown: His tag
As to the kind of experiment: co-immunoprecipitation, anti-FLAG IP and anti-Dock180 blot, COS-7 cells (FIG. 20B lane 9). An excerpt: COS-7 cells were transfected with the indicated plasmids and the lysates were immunoprecipitated with anti-FLAG antibody and immunoblotted with anti-Dock180 (a mixture of N- and C-terminal antibodies). The same blot was stripped and reprobed with anti-FLAG to determine expression of the FLAG-tagged proteins. Immunoblotting of total lysates indicated the expression of Dock180 in the appropriate lanes. FIG. 20C is a photograph of a blot showing that ELMO1 and ELMO2 interact with Dock180. COS-7 cells were transfected as above with plasmids coding for FLAG-tagged ELMO1, ELMO2, the N-term or C-term versions of ELMO1 along with His-Dock180. After anti-FLAG immunoprecipitation, the coprecipitation of Dock180 was analyzed by immunoblotting. FIG. 20D is a photograph of a blot showing that CED-12 interacts with CED-5, but not Rac in a yeast two-hybrid assay. Interaction between Caenorhabditis elegans CED-12 and CED-5 as well as Rac wt and mutants were analyzed by yeast two-hybrid interaction as described in the Experimental procedures. Growth seen on selective plates is shown. FIG. 20E is a photograph of a blot showing that formation of a trimeric complex between ELMO1, CrkII and Dock180. […]
It was determined whether there might be a physical interaction between ELMO1 and Dock180, Rac or CrkII. […]

B1: FLAG-tagged human CED-6 (other, UniProt Q9UBP9 1-304, looked up)
chain: MNRAFSRKKDKTWMHTPEALSKHFIPYNAKFLGSTEVEQPKGTEVVRDAVRKLKFARHIKKSEGQKIPKVELQISIYGVKILEPKTKEVQHNCQLHRISFCADDKTDKRIFTFICKDSESNKHLCYVFDSEKCAEEITLTIGQAFDLAYRKFLESGGKDVETRKQIAGLQKRIQDLETENMELKNKVQDLENQLRITQVSAPPAGSMTPKSPSTDIFDMIPFSPISHQSSMPTRNGTQPPPVPSRSTEIKRDLFGAEPFDPFNCGAADFPPDIQSKLDEMQEGFKMGLTLEGTVFCLDPLDSRC
notes: not shown: FLAG tag
As for B1, the binding result is listed as “no binding”.
